# According to patent US5858973, “Transcription factor and uses therefor” (The General Hospital Corporation):
# B1: SMS-TAAT2 (dsDNA)
# DNA 1: GATCCGATCTCAGTAATTAATCATGCACCA
# DNA 2: TGGTGCATGATTAATTACTGAGATCGGATC
# B2: SMS-TAAT1 mutant (dsDNA)
# DNA 1: GATCCCTGATTGCATGCCGGCTCTCAGATA
# DNA 2: TATCTGAGAGCCGGCATGCAATCAGGGATC
# modifications: [16-21]
# B3: INS1-FLAT (dsDNA)
# DNA 1: GATCCTTGTTAATCTAATTACCCTAGGTCTAA
# DNA 2: TTAGACCTAGGGTAATTAGATTAACAAGGATC
# B4: SMS-UE-B (dsDNA)
# DNA 1: GATCCGCGAGGCTAATGGTGCGTAAAAGCACTGGTGA
# DNA 2: TCACCAGTGCTTTTACGCACCATTAGCCTCGCGGATC
# B5: 6x SMS-TAAT1 in SMS65CAT (dsDNA)
# DNA 1: GATCCCTGATTGCATATTAATTCTCAGATA
# DNA 2: TATCTGAGAATTAATATGCAATCAGGGATC
# B6: SMS-PS (dsDNA)
# DNA 1: GATCCAGGCAAGATTATTTGGTCA
# DNA 2: TGACCAAATAATCTTGCCTGGATC
# B7: SMS-TAAT2 mutant (dsDNA)
# DNA 1: GATCCGATCTCAGCGGCCGATCATGCACCA
# DNA 2: TGGTGCATGATCGGCCGCTGAGATCGGATC
# modifications: [14-19]
# B8: SMS-UE-B mutant (dsDNA)
# DNA 1: GATCCGCGAGGTCGGCAGTGCGTAAAAGCACTGGTGA
# DNA 2: TCACCAGTGCTTTTACGCACTGCCGACCTCGCGGATC
# modifications: [12-17]
# Key:
# [1] = biological target: T1, IDX-1 (GST fusion, full length) (Rattus norvegicus, UniProt P52947 SEQ:1-283); assay: EMSA; appears weaker than SMS-TAAT1; settings: tags: N-terminal GST (pGEX-KG), bacterially expressed; label: 32P
# T1 sequence (P52947 other isoform, or with tags, fused parts or gaps): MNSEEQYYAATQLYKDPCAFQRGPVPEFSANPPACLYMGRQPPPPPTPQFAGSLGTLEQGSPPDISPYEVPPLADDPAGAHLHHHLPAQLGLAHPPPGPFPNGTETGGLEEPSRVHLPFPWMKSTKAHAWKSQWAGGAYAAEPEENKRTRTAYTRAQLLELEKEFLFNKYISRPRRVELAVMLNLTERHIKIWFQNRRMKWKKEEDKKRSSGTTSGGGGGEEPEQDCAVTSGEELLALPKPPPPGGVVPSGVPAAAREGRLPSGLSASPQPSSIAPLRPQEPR
# Experimental: (§1) Electrophoretic mobility shift assays (EMSA) were performed as described (Ron et al., 1990, Mol. and Cell. Biol. 10:1023) using bacterially-expressed IDX-1 or nuclear extracts prepared from RIN1027-B2 cells (Dignam et al., 1983, supra). PCR was used to generate a bacterial expression vector encoding the full length IDX-1 protein fused to glutathione S-transferase(GST). An oligonucleotide amplimer was designed to create an NcoI site at the initiation methionine of the IDX-1 cDNA. This primer was used in conjunction with the T3 primer to amplify the IDX-1 cDNA insert from an IDX-1/pBS(KS) subclone. The PCR product was digested with NcoI and XhoI, gel-purified, and ligated into NcoI/XhoI-cut pGEX-KG (Pharmacia Biotech Inc., Piscataway, N.J.). Expression and purification of the GST/IDX-1 fusion protein was performed as described (Smith and Johnson, 1988, supra).
# (§2) Nuclear extracts form RIN1027-B2 cells or purified bacterially-expressed GST/IDX-1 were incubated with the following ^32P-labelled double-stranded oligonucleotide probes: 1) INS1-FLAT, the Far-linked AT-rich element of the rat insulin 1 gene (German et al., 1992, Mol. Cell. Biol. 12:1777) (5'-[…]-3'); 2) SMS-TAAT1, a FLAT-like element (5'-[…] […]
# [2] = biological target: T1, IDX-1 (GST fusion, full length); assay: EMSA; data not shown; protein preparation not stated; settings: tags: N-terminal GST (pGEX-KG), bacterially expressed
# [3] = biological target: T1, IDX-1 (GST fusion, full length); assay: EMSA; several complexes; settings: tags: N-terminal GST (pGEX-KG), bacterially expressed; label: 32P
# Experimental: as §1, §2
# [4] = biological target: T1, IDX-1 (GST fusion, full length); assay: EMSA; settings: tags: N-terminal GST (pGEX-KG), bacterially expressed; label: 32P
# Experimental: as §1, §2
# [5] = biological target: IDX-1 (IDX-1/pBJ5 expressed in NIH-3T3) (Rattus norvegicus, UniProt P52947 SEQ:1-283); assay: cell_activity; CAT reporter in NIH-3T3
# Sequence of IDX-1 (IDX-1/pBJ5 expressed in NIH-3T3) (P52947 other isoform, or with tags, fused parts or gaps): as above
# Description: Several different reporter constructs were used in cotransfection experiments with IDX-1/pBJ5 expression vector. The SMS900CAT plasmid consists of nucleotides −900 to +54, relative to the transcription start site, of the rat somatostatin gene linked 5' to the coding sequence of the bacterial chloramphenicol acetyl transferase (CAT) gene (Powers et al., 1989, supra). The plasmid SMS900(Δ−250/−120)CAT is identical to SMS900CAT with the exception of an internal deletion between nucleotides −250 and −120. This deletion removes a putative transcriptional suppressor region located between nucleotides −237 and −189 of the rat somatostatin gene (Vallejo et al., in preparation). SMS(−900/−250) TKCAT contains −900 to −250 of the rat somatostatin gene linked 5' to the herpes simplex thymidine kinase promoter in the CAT reporter plasmid PUTKAT (Prost and Moore, 1986, Gene 45:107). The plasmids SMS900CAT(TAAT1mut), SMS900CAT(TAAT2mut) and SMS900CAT(UE-Bmut) were created using oligonucleotide-directed mutagenesis (Kunkel, 1985, Proc. Natl. Acad. Sci. USA 82:488) to introduce clustered nucleotide substitutions in the IDX-1 binding sites located at −450, −290, and —90, respectively, within the SMS900CAT reporter. For SMS-TAAT1, the central 5'-ATTAAT-3' was converted to 5'-GCCGGC-3'. […]
binder,measurement,setting,value
B1,binding result,[1],binds
B2,binding result,[2],no binding
B3,binding result,[3],binds
B4,binding result,[4],binds
B5,activity,[5],34 fold
B6,binding result,[4],no binding
B7,binding result,[2],no binding
B8,binding result,[2],no binding
